Values quoted from earlier work, collected in publication PMC3209554.

Target: ClpX N domain (Escherichia coli) (UniProt P0A6H1)
Chain of UniProt P0A6H1 (P0A6H1 2-56): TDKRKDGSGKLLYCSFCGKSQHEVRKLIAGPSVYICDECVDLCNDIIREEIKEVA

Kd: 20 µM
Substance: SspB C-terminal tail (from UniProt P0AFZ3)
